Read-outs that look alike come from different tables or passages of the source.
Experiments:
[1] = system: T1, Nona-L-arginine
T1 sequence: RRRRRRRRR

[2] = system: pERTKR-MCA (pyr-Glu-Arg-Thr-Lys-Arg-methylcoumarinamide); test: enzyme assay, hydrolysis of fluorogenic substrate, least squares fit (EnzFitter)
[3] = biological target: T2, Hexa-L-arginine
T2 chain: RRRRRR

[4] = biological target: T3, Hexa-D-arginine
T3 chain: RRRRRR

[5] = biological target: T4, Nona-L-arginine
T4 chain: RRRRRRRRR

[6] = biological target: pERTKR-MCA (pyr-Glu-Arg-Thr-Lys-Arg-methylcoumarinamide); test: enzyme assay, hydrolysis of fluorogenic substrate, least squares fit (EnzFitter); remark: listed apart in the source

B1: proprotein convertase PC2 (enzyme, UniProt P16519 110-638, looked up, species assumed)
Neuroendocrine convertase 2: GYRDINEIDINMNDPLFTKQWYLINTGQADGTPGLDLNVAEAWELGYTGKGVTIGIMDDGIDYLHPDLASNYNAEASYDFSSNDPYPYPRYTDDWFNSHGTRCAGEVSAAANNNICGVGVAYNSKVAGIRMLDQPFMTDIIEASSISHMPQLIDIYSASWGPTDNGKTVDGPRELTLQAMADGVNKGRGGKGSIYVWASGDGGSYDDCNCDGYASSMWTISINSAINDGRTALYDESCSSTLASTFSNGRKRNPEAGVATTDLYGNCTLRHSGTSAAAPEAAGVFALALEANLGLTWRDMQHLTVLTSKRNQLHDEVHQWRRNGVGLEFNHLFGYGVLDAGAMVKMAKDWKTVPERFHCVGGSVQDPEKIPSTGKLVLTLTTDACEGKENFVRYLEHVQAVITVNATRRGDLNINMTSPMGTKSILLSRRPRDDDSKVGFDKWPFMTTHTWGEDARGTWTLELGFVGSAPQKGVLKEWTLMLHGTQSAPYIDQVVRDYQSKLAMSKKEELEEELDEAVERSLKSILNKN
[1]
  cleavage of the peptide by PC2 (HPLC): essentially no cleavage was observed after 24 h of incubation (results not shown)
[2]
  Km: The Kms of PC1, PC2, furin, and PACE4 were determined as 11, 42, 8, and 15 µM, respectively

B2: proprotein convertase PC1 (enzyme, UniProt P29120 111-753, looked up, species assumed)
Neuroendocrine convertase 1: SALRDSALNLFNDPMWNQQWYLQDTRMTAALPKLDLHVIPVWQKGITGKGVVITVLDDGLEWNHTDIYANYDPEASYDFNDNDHDPFPRYDPTNENKHGTRCAGEIAMQANNHKCGVGVAYNSKVGGIRMLDGIVTDAIEASSIGFNPGHVDIYSASWGPNDDGKTVEGPGRLAQKAFEYGVKQGRQGKGSIFVWASGNGGRQGDNCDCDGYTDSIYTISISSASQQGLSPWYAEKCSSTLATSYSSGDYTDQRITSADLHNDCTETHTGTSASAPLAAGIFALALEANPNLTWRDMQHLVVWTSEYDPLANNPGWKKNGAGLMVNSRFGFGLLNAKALVDLADPRTWRSVPEKKECVVKDNDFEPRALKANGEVIIEIPTRACEGQENAIKSLEHVQFEATIEYSRRGDLHVTLTSAAGTSTVLLAERERDTSPNGFKNWDFMSVHTWGENPIGTWTLRITDMSGRIQNEGRIVNWKLILHGTSSQPEHMKQPRVYTSYNTVQNDRRGVEKMVDPGEEQPTQENPKENTLVSKSPSSSSVGGRRDELEEGAPSQAMLRLLQSAFSKNSPPKQSPKKSPSAKLNIPYENFYEALEKLNKPSQLKDSEDSLYNDYVDVFYNTKPYKHRDDRLLQALVDILNEEN
[2]
  Km: The Kms of PC1, PC2, furin, and PACE4 were determined as 11, 42, 8, and 15 µM, respectively

B3: proprotein convertase PACE4 (enzyme, UniProt P29122 150-969, looked up, species assumed)
Proprotein convertase subtilisin/kexin type 6: QVRSDPQALYFNDPIWSNMWYLHCGDKNSRCRSEMNVQAAWKRGYTGKNVVVTILDDGIERNHPDLAPNYDSYASYDVNGNDYDPSPRYDASNENKHGTRCAGEVAASANNSYCIVGIAYNAKIGGIRMLDGDVTDVVEAKSLGIRPNYIDIYSASWGPDDDGKTVDGPGRLAKQAFEYGIKKGRQGLGSIFVWASGNGGREGDYCSCDGYTNSIYTISVSSATENGYKPWYLEECASTLATTYSSGAFYERKIVTTDLRQRCTDGHTGTSVSAPMVAGIIALALEANSQLTWRDVQHLLVKTSRPAHLKASDWKVNGAGHKVSHFYGFGLVDAEALVVEAKKWTAVPSQHMCVAASDKRPRSIPLVQVLRTTALTSACAEHSDQRVVYLEHVVVRTSISHPRRGDLQIYLVSPSGTKSQLLAKRLLDLSNEGFTNWEFMTVHCWGEKAEGQWTLEIQDLPSQVRNPEKQGKLKEWSLILYGTAEHPYHTFSAHQSRSRMLELSAPELEPPKAALSPSQVEVPEDEEDYTAQSTPGSANILQTSVCHPECGDKGCDGPNADQCLNCVHFSLGSVKTSRKCVSVCPLGYFGDTAARRCRRCHKGCETCSSRAATQCLSCRRGFYHHQEMNTCVTLCPAGFYADESQKNCLKCHPSCKKCVDEPEKCTVCKEGFSLARGSCIPDCEPGTYFDSELIRCGECHHTCGTCVGPGREECIHCAKNFHFHDWKCVPACGEGFYPEEMPGLPHKVCRRCDENCLSCAGSSRNCSRCKTGFTQLGTSCITNHTCSNADETFCEMVKSNRLCERKLFIQFCCRTCLLAG
[2]
  Km: The Kms of PC1, PC2, furin, and PACE4 were determined as 11, 42, 8, and 15 µM, respectively

B4: recombinant truncated mouse furin (protein)
chain: DVYQEPTDPKFPQQWYLSGVTQRDLNVKEAWAQGFTGHGIVVSILDDGIEKNHPDLAGNYDPGASFDVNDQDPDPQPRYTQMNDNRHGTRCAGEVAAVANNGVCGVGVAYNARIGGVRMLDGEVTDAVEARSLGLNPNHIHIYSASWGPEDDGKTVDGPARLAEEAFFRGVSQGRGGLGSIFVWASGNGGREHDSCNCDGYTNSIYTLSISSATQFGNVPWYSEACSSTLATTYSSGNQNEKQIVTTDLRQKCTESHTGTSASAPLAAGIIALTLEANKNLTWRDMQHLVVQTSKPAHLNADDWATNGVGRKVSHSYGYGLLDAGAMVALAQNWTTVAPQRKCIVEILVEPKDIGKRLEVRKAVTACLGEPNHITRLEHVQARLTLSYNRRGDLAIHLISPMGTRSTLLAARPHDYSADGFNDWAFMTTHSWDEDPAGEWVLEIENTSEANNYGTLTKFTLVLYGTAPEGLSTPPESSGCKTLTSSQACVVCEEGYSLHQKSCVQHCPPGFIPQVLDTHYSTENDVEIIRASVCTPCHASCATCQGPAPTDCLSCPSHASLDPVEQTCSRQSQSSRESRPQQQPPALRPEVEMEPRLQAGLASHLPE
[3]
  cleavage of the peptide by furin (HPLC): essentially no cleavage was seen after six hours incubation with furin (results not shown). After 24 hours, partial digestion of hexa-L-arginine (SEQ ID NO 14) had occurred, producing some penta-L-arginine
[4]
  cleavage of the peptide by furin (HPLC): essentially no cleavage was observed after 24 h of incubation (results not shown)
[5]
  cleavage of the peptide by furin (HPLC): Cleavage of nona-L-arginine (SEQ ID NO 13) was first observed ˜40 min after reaction with furin had commenced, with the appearance of hexa- and hepta-L-arginine
[6]
  Km: The Kms of PC1, PC2, furin, and PACE4 were determined as 11, 42, 8, and 15 µM, respectively
